The target in the test is PACAP type 1 receptor (PAC1R), PAC1null splice variant, FLAG and His tagged (UniProt P41586).
Sequence of PACAP type 1 receptor (PAC1R), PAC1null splice variant, FLAG and His tagged (P41586 21-468, change not shown): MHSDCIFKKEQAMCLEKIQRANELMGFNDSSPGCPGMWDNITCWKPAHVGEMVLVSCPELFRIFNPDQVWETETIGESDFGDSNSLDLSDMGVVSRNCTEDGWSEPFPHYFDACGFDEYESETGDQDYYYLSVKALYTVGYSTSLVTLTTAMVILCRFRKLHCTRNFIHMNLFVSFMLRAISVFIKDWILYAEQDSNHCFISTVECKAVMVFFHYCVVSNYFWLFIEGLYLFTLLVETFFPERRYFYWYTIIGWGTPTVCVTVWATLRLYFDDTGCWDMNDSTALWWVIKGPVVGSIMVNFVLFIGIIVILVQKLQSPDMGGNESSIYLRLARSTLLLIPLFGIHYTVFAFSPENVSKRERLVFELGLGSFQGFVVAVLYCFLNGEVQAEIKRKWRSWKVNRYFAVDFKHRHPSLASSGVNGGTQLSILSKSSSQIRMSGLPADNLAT

As to Ala4 PACAP27 (peptide), the cAMP potency in COS-7 cells transfected with PAC1R, fold change relative to PACAP27 is 5 fold.

Gly4 VIP (peptide) registered a cAMP potency in COS-7 cells transfected with PAC1R, fold change relative to VIP of 3 fold.

For the origin of these results see paper PMC9668914, “Understanding VPAC receptor family peptide binding and selectivity” (Nature Communications, 2022).
